Source: patent US7393837B2, “Inhibition of PEX in the treatment of metabolic bone diseases” (McGill University, priority 1998, dated 2008)

How the values were obtained:
recombinant human PEX = target: T1, recombinant human PEX (Homo sapiens, UniProt P78562); experiment: Membrane-bound endopeptidase assay, hydrolysis by PEX-expressing COS cell membranes (HPLC); type: biochemical; conditions: for hydrolysis of the peptide in the presence of PEX: 10 μg peptide, COS cell membranes expressing PEX, HPLC at 214 nm, FIG. 8
T1 construct: excising the full length PEX cDNA that was then inserted into pcDNA3 vector; expressed in transfected cells; host or cells: COS-7 cells, transient transfection with pPEX (pcDNA3); 100,000 x g membrane fraction
T1 sequence (P78562 1-749): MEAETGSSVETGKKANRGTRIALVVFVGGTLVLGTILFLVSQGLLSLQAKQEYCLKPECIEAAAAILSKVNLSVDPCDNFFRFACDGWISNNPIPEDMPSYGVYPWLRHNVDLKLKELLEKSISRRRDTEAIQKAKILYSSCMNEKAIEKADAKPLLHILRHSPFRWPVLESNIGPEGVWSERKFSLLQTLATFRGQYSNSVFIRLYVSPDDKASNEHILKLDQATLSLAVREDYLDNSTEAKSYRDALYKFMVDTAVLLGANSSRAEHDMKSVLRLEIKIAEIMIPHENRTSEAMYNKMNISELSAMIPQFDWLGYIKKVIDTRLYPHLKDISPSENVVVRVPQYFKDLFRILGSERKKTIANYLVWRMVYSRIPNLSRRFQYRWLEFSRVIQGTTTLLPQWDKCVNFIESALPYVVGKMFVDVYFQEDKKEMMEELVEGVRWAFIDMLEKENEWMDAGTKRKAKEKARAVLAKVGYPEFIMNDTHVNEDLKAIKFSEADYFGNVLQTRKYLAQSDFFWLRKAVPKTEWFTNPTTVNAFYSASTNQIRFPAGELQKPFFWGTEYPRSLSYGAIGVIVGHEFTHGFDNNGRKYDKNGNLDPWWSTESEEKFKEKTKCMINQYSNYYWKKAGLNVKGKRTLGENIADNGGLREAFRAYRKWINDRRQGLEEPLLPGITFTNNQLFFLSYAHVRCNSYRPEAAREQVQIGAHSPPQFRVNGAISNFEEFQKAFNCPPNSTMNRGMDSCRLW
Method: (§1) COS-7 cells transiently transfected with pcDNA3 vector alone, with vector containing human NEP cDNA (generous gift of P. Crine, Université de Montréal), or with pPEX plasmid, were washed and scraped in PBS. Following brief centrifugation, the cell pellets were resuspended in 50 mM Tris-HCl, pH 7.4 and disrupted by sonication. Homogenates were fractionated by sequential centrifugation at 1,000×g for 10 min and then at 100,000×g for 60 min. The final precipitate was washed with 50 mM Tris-HCl, pH 7.4, resuspended in the same buffer, and assayed for endopeptidase activity. The protein concentration in membrane fractions was determined by the method of Bradford with bovine serum albumin as standard.
[D-Ala^2,Leu^5] enkephalin (500 μM) was incubated with COS cell membrane preparations (˜60 μg of protein) in 100 mM Tris-HCl, pH 7.0, at 37° C. for 30 min (final volume 30 μl). The reaction was terminated by the addition of 100 μl 0.1% TFA (v/v). Production of Tyr-D-Ala-Gly was monitored using reversed-phase HPLC (Bondpak C-18 reverse phase column, Waters) with a U.V. detector set at 214 nm. A linear solvent gradient of 0% B to 40% B in 60 min was used with a flow rate of 1.5 ml/min (mobile phase A=0.1% TFA (v/v); mobile phase B=80% acetonitrile/0.1% TFA). Tyr-D-Ala-Gly was identified by co-chromatography with marker synthetic peptide. For assessing PEX endopeptidase activity, 10 μg of PTH [1-38] and PTH [1-34] peptides (Peninsula Laboratories; Belmont, Calif.) were added to the membrane preparations. For HPLC analysis of hydrolysis products, a linear solvent gradient of 0% to 50% solution B was used at a rate of 1.5 ml/min. MALDI-TOF mass spectrometry was performed on specific peptide fragments.

recombinant human NEP = target: T2, recombinant human NEP (Homo sapiens, UniProt P08473); experiment: Membrane-bound endopeptidase assay, hydrolysis by NEP-expressing COS cell membranes (HPLC); type: biochemical; conditions: 500 μM substrate, 37° C., 30 min; FIG. 7B
T2 construct: expressed in transfected cells; host or cells: COS-7 cells, transient transfection; 100,000 x g membrane fraction
Method: as §1
[D-Ala^2,Leu^5] enkephalin (500 μM) was incubated with COS cell membrane preparations (˜60 μg of protein) in 100 mM Tris-HCl, pH 7.0, at 37° C. for 30 min (final volume 30 μl). The reaction was terminated by the addition of 100 μl 0.1% TFA (v/v). Production of Tyr-D-Ala-Gly was monitored using reversed-phase HPLC (Bondpak C-18 reverse phase column, Waters) with a U.V. detector set at 214 nm. A linear solvent gradient of 0% B to 40% B in 60 min was used with a flow rate of 1.5 ml/min (mobile phase A=0.1% TFA (v/v); mobile phase B=80% acetonitrile/0.1% TFA). Tyr-D-Ala-Gly was identified by co-chromatography with marker synthetic peptide. […]

T2 sequence (P08473 whole entry): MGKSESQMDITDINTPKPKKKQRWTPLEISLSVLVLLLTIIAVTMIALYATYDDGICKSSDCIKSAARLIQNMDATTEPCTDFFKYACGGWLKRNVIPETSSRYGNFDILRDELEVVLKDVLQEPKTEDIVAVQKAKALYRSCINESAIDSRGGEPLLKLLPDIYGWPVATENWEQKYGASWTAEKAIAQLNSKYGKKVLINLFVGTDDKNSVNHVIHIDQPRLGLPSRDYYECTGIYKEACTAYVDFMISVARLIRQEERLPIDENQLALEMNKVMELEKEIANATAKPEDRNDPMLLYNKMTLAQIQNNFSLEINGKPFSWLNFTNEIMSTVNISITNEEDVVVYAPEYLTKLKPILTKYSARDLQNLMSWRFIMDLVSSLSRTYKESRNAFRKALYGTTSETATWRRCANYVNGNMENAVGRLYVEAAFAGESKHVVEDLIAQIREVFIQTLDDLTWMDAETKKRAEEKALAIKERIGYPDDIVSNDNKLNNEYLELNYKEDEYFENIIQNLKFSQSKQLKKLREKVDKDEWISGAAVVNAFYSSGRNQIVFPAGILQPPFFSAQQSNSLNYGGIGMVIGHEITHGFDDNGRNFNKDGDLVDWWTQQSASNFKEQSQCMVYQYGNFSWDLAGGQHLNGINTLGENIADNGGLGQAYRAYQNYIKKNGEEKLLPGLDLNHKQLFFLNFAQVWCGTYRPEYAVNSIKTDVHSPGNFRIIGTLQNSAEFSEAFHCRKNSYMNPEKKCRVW

Substance	hydrolysis of the peptide in the presence of PEX (recombinant human PEX)	production of Tyr-D-Ala-Gly from the substrate, PEX membranes (recombinant human PEX; 500 μM substrate, 37° C., 30 min, FIG. 7C)	production of Tyr-D-Ala-Gly from the substrate, NEP membranes (recombinant human NEP)
PTH [1-34]: human parathyroid hormone peptide 1-34 (Peninsula Laboratories), used as PEX substrate	hydrolyzed	–	–
PTH [1-38]: human parathyroid hormone peptide 1-38 (Peninsula Laboratories), used as PEX substrate (SVSEIQLMHNLGKHLNSMERVEWLRKKLQDVHNFVALG)	hydrolyzed	–	–
[D-Ala^2, Leu^5] enkephalin	–	evident only in NEP-expressing membrane preparations	evident only in NEP-expressing membrane preparations
